Reference: article PMC6570480, “PLK4 promotes centriole duplication by phosphorylating STIL to link the procentriole cartwheel to the microtubule wall” (eLife, 2019)
Values belong to the molecule of their own block, whether it stands above or below them.

Columns and labels:
[1] = molecular target: CPAP TCP domain, 1142-1338 (UniProt Q9HC77); assay: GST pull-down, immunoblot; conditions: sites S428
CPAP [2] = molecular target: CPAP (UniProt Q9HC77); assay: GFP-binding-protein co-IP, immunoblot; conditions: sites S428
DmSas4 = assay: co-IP, immunoblot; conditions: reference: WT Ana2, no DmPLK4SBM-mCherry; sites S38
CPAP [3] = molecular target: CPAP (UniProt Q9HC77); assay: immunofluorescence co-localisation at GFP-STIL/PLK4 foci; conditions: reference: WT Myc-GFP-STIL; sites S428
[4] = molecular target: T1, Recombinant full-length GST-STIL S428A phosphorylated in vitro by the His-PLK4 kinase domain (human, UniProt Q15468 1-1287, S428A, phosphorylated at multiple sites by the 6xHis-PLK4 kinase domain (not at 428)); assay: pull-down; GST-hSTIL bound to GSH resin, incubated with 6xHis-hPlk4 (a.a. 1–416) with or without 10 µM ATP at 33°C for two hours, then with Flag-CPAP TCP domain for 2 hr at 4°C in 50 mM Na-HEPES pH 7.5, 400 mM NaCl, 2 mM MgCl2, 1 mM EGTA, 1 mM DTT, 0.15% Triton-X 100, 0.5 mg/ml BSA; immunoblot; conditions: both partners purified
T1 construct: STIL, human, full length; also called S428A GST-STIL; source: SF9 insect cells (Bac-to-Bac), purified (Glutathione Sepharose); phosphorylated on beads by 6xHis-hPlk4 (a.a. 1–416) with ATP; not shown: GST, N-terminal, kept
T1 sequence (looked up): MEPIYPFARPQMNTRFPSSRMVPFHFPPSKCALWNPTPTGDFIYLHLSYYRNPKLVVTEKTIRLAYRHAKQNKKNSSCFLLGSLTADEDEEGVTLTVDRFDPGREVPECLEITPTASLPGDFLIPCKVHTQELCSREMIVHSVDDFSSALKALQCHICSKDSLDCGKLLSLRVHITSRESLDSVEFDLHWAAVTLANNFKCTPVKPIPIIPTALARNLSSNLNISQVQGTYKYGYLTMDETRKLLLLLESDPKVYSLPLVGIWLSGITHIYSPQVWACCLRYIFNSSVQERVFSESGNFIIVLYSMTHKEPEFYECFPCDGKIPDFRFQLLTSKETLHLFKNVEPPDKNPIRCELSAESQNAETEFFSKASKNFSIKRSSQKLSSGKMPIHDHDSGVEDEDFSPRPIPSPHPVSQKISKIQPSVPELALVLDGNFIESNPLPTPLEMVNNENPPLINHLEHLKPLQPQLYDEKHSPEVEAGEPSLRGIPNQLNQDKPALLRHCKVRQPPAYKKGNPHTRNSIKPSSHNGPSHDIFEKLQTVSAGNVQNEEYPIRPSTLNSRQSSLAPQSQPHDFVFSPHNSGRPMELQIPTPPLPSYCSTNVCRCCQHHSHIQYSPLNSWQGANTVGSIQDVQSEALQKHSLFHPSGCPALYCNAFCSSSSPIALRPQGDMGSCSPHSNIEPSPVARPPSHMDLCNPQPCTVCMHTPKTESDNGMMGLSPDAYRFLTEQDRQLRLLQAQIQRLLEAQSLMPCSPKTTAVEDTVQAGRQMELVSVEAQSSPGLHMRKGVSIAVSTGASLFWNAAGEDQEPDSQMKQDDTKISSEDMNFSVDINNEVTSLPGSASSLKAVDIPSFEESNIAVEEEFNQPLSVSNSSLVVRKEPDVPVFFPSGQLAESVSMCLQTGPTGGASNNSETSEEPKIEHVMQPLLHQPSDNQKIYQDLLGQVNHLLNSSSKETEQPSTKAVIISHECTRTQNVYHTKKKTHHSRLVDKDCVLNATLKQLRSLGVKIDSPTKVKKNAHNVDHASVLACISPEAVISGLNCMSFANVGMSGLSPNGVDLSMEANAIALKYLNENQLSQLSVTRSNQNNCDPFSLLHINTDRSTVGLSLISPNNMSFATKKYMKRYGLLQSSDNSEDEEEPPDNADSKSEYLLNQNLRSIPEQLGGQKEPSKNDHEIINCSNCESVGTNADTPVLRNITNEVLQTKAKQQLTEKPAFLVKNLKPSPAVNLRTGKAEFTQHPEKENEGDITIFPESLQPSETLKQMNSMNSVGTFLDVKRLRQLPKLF

[5] = molecular target: T2, Recombinant full-length GST-STIL S428A, not phosphorylated (human, UniProt Q15468 1-1287, S428A); assay: as above; conditions: both partners purified
T2 construct: STIL, human, full length; also called S428A GST-STIL; source: SF9 insect cells (Bac-to-Bac), purified (Glutathione Sepharose); incubated with 6xHis-hPlk4 (a.a. 1–416) without ATP; not shown: GST, N-terminal, kept
T2 sequence (looked up): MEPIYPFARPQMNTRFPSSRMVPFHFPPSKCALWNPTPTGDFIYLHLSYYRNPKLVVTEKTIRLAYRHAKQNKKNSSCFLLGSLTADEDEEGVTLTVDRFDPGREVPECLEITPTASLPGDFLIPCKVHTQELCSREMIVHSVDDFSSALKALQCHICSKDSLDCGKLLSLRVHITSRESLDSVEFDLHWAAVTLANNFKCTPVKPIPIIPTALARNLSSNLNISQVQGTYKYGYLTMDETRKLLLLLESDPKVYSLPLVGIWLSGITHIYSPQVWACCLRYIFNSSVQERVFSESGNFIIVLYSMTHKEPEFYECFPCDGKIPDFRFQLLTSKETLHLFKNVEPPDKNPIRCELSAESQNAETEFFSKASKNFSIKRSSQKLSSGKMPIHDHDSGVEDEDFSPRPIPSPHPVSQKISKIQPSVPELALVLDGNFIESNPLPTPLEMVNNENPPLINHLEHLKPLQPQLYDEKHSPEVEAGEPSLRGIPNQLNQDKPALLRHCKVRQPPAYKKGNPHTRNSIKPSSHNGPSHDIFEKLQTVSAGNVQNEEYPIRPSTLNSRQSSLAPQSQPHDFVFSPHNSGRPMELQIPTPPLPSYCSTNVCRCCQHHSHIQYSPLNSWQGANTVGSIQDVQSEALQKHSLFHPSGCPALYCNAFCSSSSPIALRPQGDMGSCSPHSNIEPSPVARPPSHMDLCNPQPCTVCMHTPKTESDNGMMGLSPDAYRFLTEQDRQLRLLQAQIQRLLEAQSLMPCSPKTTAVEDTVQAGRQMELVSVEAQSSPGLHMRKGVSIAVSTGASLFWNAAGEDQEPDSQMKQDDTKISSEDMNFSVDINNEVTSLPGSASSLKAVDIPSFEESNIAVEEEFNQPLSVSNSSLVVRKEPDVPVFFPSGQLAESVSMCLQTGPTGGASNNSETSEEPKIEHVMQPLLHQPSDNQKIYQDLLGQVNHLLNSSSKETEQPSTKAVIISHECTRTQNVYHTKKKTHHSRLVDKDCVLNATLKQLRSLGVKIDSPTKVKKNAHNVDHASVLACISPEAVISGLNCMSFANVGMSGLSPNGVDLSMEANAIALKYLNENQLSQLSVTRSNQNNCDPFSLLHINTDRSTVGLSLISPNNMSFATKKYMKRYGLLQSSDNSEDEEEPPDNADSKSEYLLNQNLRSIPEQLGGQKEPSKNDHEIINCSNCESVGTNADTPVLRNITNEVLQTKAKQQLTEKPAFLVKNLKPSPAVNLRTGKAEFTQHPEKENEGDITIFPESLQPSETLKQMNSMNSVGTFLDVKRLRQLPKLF

[6] = molecular target: T3, Recombinant full-length GST-STIL (WT) phosphorylated in vitro by the His-PLK4 kinase domain (human, UniProt Q15468 1-1287, phosphoserine at 428 and phosphorylation at multiple other sites (84 in vitro phosphorylation sites identified on STIL), by the 6xHis-PLK4 kinase domain); assay: as above; conditions: both partners purified
T3 construct: STIL, human, full length; also called GST-hSTIL; phosphorylated WT GST-STIL; source: SF9 insect cells (Bac-to-Bac), purified (Glutathione Sepharose); phosphorylated on beads by 6xHis-hPlk4 (a.a. 1–416) with ATP; not shown: GST, N-terminal, kept
T3 sequence (looked up): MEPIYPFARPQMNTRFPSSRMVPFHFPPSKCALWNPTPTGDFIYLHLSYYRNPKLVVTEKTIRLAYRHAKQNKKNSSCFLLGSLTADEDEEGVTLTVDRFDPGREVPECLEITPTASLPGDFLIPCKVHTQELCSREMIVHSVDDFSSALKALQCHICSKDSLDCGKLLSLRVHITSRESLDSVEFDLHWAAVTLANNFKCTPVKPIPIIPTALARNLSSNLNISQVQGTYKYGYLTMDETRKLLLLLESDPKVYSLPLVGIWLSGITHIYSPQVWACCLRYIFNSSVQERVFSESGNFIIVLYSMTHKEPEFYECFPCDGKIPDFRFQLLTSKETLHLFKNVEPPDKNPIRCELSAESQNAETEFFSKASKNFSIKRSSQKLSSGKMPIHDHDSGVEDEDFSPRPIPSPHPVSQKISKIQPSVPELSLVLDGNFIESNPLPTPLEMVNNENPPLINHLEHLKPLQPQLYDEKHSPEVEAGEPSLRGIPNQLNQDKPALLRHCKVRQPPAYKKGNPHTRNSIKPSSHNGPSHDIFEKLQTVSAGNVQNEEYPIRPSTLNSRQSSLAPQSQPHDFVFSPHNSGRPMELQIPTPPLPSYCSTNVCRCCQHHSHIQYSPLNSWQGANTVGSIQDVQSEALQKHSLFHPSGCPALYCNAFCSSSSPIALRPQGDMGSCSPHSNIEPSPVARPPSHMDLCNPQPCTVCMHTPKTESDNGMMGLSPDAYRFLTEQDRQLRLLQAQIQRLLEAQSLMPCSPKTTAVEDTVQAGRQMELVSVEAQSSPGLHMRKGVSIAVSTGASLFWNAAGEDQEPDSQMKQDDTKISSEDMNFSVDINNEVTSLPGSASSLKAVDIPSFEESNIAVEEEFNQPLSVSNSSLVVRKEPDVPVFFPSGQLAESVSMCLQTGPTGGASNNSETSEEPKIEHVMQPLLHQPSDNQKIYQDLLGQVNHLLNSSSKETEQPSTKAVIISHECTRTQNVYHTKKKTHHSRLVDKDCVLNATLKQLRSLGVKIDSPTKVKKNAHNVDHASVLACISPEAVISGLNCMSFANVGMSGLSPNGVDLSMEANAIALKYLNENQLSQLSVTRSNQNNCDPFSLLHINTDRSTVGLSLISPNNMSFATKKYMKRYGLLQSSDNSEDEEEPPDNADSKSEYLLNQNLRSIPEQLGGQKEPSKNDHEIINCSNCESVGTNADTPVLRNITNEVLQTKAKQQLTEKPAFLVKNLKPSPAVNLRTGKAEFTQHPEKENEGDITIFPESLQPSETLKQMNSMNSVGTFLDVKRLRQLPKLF

Molecule: STIL (from UniProt Q15468) GST-STIL S428A, PLK4 + ATP
binding against the reference ([1]; reference: WT GST-STIL, PLK4 + ATP): weaker

Molecule: STIL (from UniProt Q15468) WT STIL + kinase-active PLK4∆24-mCherry
fold change (CPAP [2]; reference: WT STIL + kinase-dead PLK4∆24-mCherry): > 7

Molecule: Ana2 WT Ana2 + DmPLK4SBM-mCherry
fold change (DmSas4): > 6

B1: Flag-CPAP TCP domain (aa 1142–1338) (domain or fragment, human, UniProt Q9HC77 1142-1338, looked up)
chain: EEEEDQDIQGEISHPDGKVEKVYKNGCRVILFPNGTRKEVSADGKTITVTFFNGDVKQVMPDQRVIYYYAAAQTTHTTYPEGLEVLHFSSGQIEKHYPDGRKEITFPDQTVKNLFPDGQEESIFPDGTIVRVQRDGNKLIEFNNGQRELHTAQFKRREYPDGTVKTVYANGHQETKYRSGRIRVKDKEGNVLMDTEL
notes: CPAP (CENPJ), human, TCP domain, residues 1142–1338; Expressed as GST-Flag-CPAP TCP; also called Flag-TCP domain; Flag-TCP; source: E. coli Rosetta (DE3), purified; not shown: FLAG, N-terminal, kept
binding result [4]: binds
binding result [5]: binds
fold increase in binding, phosphorylated against unphosphorylated GST-STIL [6]: ~2.5 fold

Next, values leading:

other: percent reduction of CPAP at foci (CPAP [3]): > 90%
Molecule: STIL (from UniProt Q15468) Myc-GFP-STIL S428A

binding against the reference (CPAP [2]; reference: WT STIL + kinase-active PLK4∆24-mCherry): weaker
Molecule: STIL (from UniProt Q15468) STIL S428A + kinase-active PLK4∆24-mCherry

fold change ([1]; reference: WT GST-STIL + His-PLK4 kinase domain, no ATP): 2.5
Molecule: STIL (from UniProt Q15468) WT GST-STIL + His-PLK4 kinase domain + ATP
